Tests used:
[1] = biological target: CLDN18.2 of healthy mouse stomach (mouse) (UniProt P56857); experiment: flow cytometry, live cells of healthy mouse stomach, average of two mice
[2] = biological target: CLDN18.2 of healthy mouse stomach (mouse) (UniProt P56857); experiment: flow cytometry, live cells of healthy mouse stomach, mouse 1, antibody 4 µg/ml
[3] = biological target: CLDN18.2 of healthy mouse stomach (mouse) (UniProt P56857); experiment: flow cytometry, live cells of healthy mouse stomach, mouse 2, antibody 4 µg/ml

- % of positive healthy stomach cells [1]: 0.35%
- % of positive healthy stomach cells [2]: 0.4%
- % of positive healthy stomach cells [3]: 0.3%
B1: cCl1-1 (antibody, V domains shown)
VH: QIQLVQSGPELKKPGESVKISCKASGYTFTDYAMHWVKQAPGKGLKWMGWINTYTGKPTYADDFKGRFVFSLEASASTANLQISNLKNEDTATYFCARAVFYGYTMDAWGQGTSVTVSS
VL: DIQMTQSPASLSASLGETISIACRASEDIYSNLAWYQQKSGKSPQLLIFSVKRLQDGVPSRFSGSGSGTQYSLKISGMQPEDEGDYFCLQGSNFPLTFGSGTKLEIK

From patent publication US20240100180A1
